This note sets out measurements from paper PMC3985653, “A bacteriophage transcription regulator inhibits bacterial transcription initiation by σ-factor displacement”.

Data set [1] deals with T1, P7-sensitive core RNA polymerase (P7SE; hybrid E. coli core with Xo beta' N-terminus NLFN);sigma70 (Escherichia coli (397c cells, …, UniProt P0A7Z4;P0A8V2;Q2NZX9;P0A800;P00579 1-329;1-1342;1-10+P0A8T7:11-1407;2-91;1-613, internal_change|). Nature of the data set: KMnO4 footprinting. Conditions: protein: recombinant;recombinant; tags: C-6His on beta';N-6His-HMK in 32P-labelled experiments; unlabelled form purified separately; chain copies: 2;1;1;1;1; label: 5'-32P on one strand; blunt.

For data set [2], the target named is T1, P7-sensitive core RNA polymerase (P7SE; …). As to the kind of experiment: EMSA; no P7; heparin-resistant open complex. To be noted: protein: recombinant;recombinant; tags: C-6His on beta';N-6His-HMK in 32P-labelled experiments; unlabelled form purified separately; chain copies: 2;1;1;1;1; blunt.

B1: T5 N25 promoter [-65 to +35] (dsDNA)
DNA 1: TCTTTGCTCAAAGAATCATAAAAAATTTATTTGCTTTCAGGAAAATTTTTCTGTATAATAGATTCATAAATTTGAGAGAGGAGTTTAAATATGGCTGGTTC
DNA 2: GAACCAGCCATATTTAAACTCCTCTCTCAAATTTATGAATCTATTATACAGAAAAATTTTCCTGAAAGCAAATAAATTTTTTATGATTCTTTGAGCAAAGA
Regarding B1, in data set [1], the binding result is reported as “binds”.

B2: lacUV5 promoter [-64 to +36] (dsDNA)
DNA 1: GTTAGCTCACTCATTAGGCACCCCAGGCTTTACACTTTATGCTTCCGGCTCGTATAATGTGTGGAATTGTGAGCGGATAACAATTTCACACAGGAAACAG
DNA 2: CTGTTTCCTGTGTGAAATTGTTATCCGCTCACAATTCCACACATTATACGAGCCGGAAGCATAAAGTGTAAAGCCTGGGGTGCCTAATGAGTGAGCTAAC
Take B2: the binding result in data set [2] was “binds”.
